Test results taken from US20190022211A1 (CELLTRION, published 2019).
Values joined by “and” are separate entries in the source; they are usually repeats but may differ in a detail not shown here. Equal values may be shown once.

Experiments:
[1] = target: G protein of rabies virus Mongoose RSA , on virus (rabies virus); assay: cell-based or functional assay
[2] = target: G protein of rabies virus DR Brazil , on virus (rabies virus); assay: cell-based or functional assay

Binder | neutralizing activity (RFFIT) [1] | neutralizing activity (RFFIT), Titer [1] | neutralizing activity (RFFIT) [2] | neutralizing activity (RFFIT), Titer [2]
antibody 1 (antibody, V domains shown) VH: VQLLQESGPGLAKPSETLSLICTVSGGSISRRRDYWGWIRQPPGRGLEWIGSFFHRGSTYYNPSLESRVSISVDPSKNQFSLHLSSVTVADTAVYYCARHPSTPFAEYLLLPDAFDSWGQGTLVTVSS VL: DIVMTQSPATLSVSPGERATLSCRASQSVRSSLAWYQQRPGQAPRLLISGASTRATDIPARLSGSGSGTEFTLTVSSLQSEDFAVYYCQQYSDWPLTFGGGTKVEIKR | 7.7 IU/mL and 7710 IU/mg | 270 | 2.2 IU/mL and 2240 IU/mg | 56
antibody 2 (antibody, V domains shown) VH: EVQLVESGAEVKKPGASVKVSCKASGYTFTSYDISWVRQAPGQGLEWMGWISTYKGNTNFAQKFQDRVTLTTDTSTTTAYMELRSLTSDDTAVYYCARAKSHPFYDFWSAYYVPGAFDIWGQGTVVTVSS VL: not shown | 9.1 IU/mL and 9140 IU/mg | 320 | 1.8 IU/mL and 1800 IU/mg | 45
